± gives the standard deviation of the averaged measurements.
How the values were obtained:
Saccharomyces cerevisiae [1] = experiment: protein stability index of tFT-peptide fusion (C-terminal peptide) (PSI (0-1 scale)); higher = more stable (slower turnover); conditions: genetic background: wild type; temperature: 30 C
Saccharomyces cerevisiae [2] = experiment: as above
Method: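 MPS profiling in S. cerevisiae of the tFT-X12 degron library: putative degron peptides plus stable controls, 12 aa, fused to the C-terminus of a sfGFP-mCherry timer. Cells are FACS-sorted into 8 mCherry/sfGFP bins and deep-sequenced. PSI runs from 0 (unstable) to 1 (stable). Backgrounds are wild type, das1Δ and doa10Δ at 30 °C, and wild type, das1Δ, cdc34-1 and cdc53-1 at 37 °C; 2-3 technical replicates each.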

[3] = genetic background: cdc34-1, temperature: 37 C
[4] = genetic background: cdc53-1, temperature: 37 C
[5] = genetic background: das1 deletion, temperature: 30 C
[6] = genetic background: das1 deletion, temperature: 37 C
[7] = genetic background: doa10 deletion, temperature: 30 C
[8] = genetic background: wild type, temperature: 30 C
[9] = genetic background: wild type, temperature: 37 C
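Note: PSI is a weighted mean of sequencing reads over stability bins, variants kept only with over 10 reads, mCherry proximal and sfGFP distal, peptide attached via GGGS linker.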

Sequence | protein stability index (Saccharomyces cerevisiae [1]) | protein stability index (Saccharomyces cerevisiae [2]; [3]) | protein stability index (Saccharomyces cerevisiae [2]; [4]) | protein stability index (Saccharomyces cerevisiae [2]; [5]) | protein stability index (Saccharomyces cerevisiae [2]; [6]) | protein stability index (Saccharomyces cerevisiae [2]; [7]) | protein stability index (Saccharomyces cerevisiae [2]; [8]) | protein stability index (Saccharomyces cerevisiae [2]; [9])
YSMLGKLVRLVT | 0.285 ± 0.033 | 0.553 ± 0.05 | 0.662 ± 0.02 | 0.512 ± 0.025 | 0.63036 ± 0.00022 | 0.164 ± 0.004 | 0.2 ± 0.013 | 0.374 ± 0.015
ARGVAAAFVSGF | 0.595 ± 0.23 | 0.696 ± 0.043 | 0.7725 ± 0.0057 | 0.657 ± 0.03 | 0.746 ± 0.016 | 0.661 ± 0.023 | 0.653 ± 0.0078 | 0.725 ± 0.03
LLFTFSLSFFFR | 0.445 ± 0.014 | 0.405 ± 0.036 | 0.467 ± 0.0087 | 0.445 ± 0.048 | 0.438 ± 0.0076 | 0.458 ± 0.018 | 0.42 ± 0.022 | 0.45 ± 0.022
RFLPYLPTPLSP | 0.52 ± 0.031 | 0.664 ± 0.026 | 0.7203 ± 0.0043 | 0.506 ± 0.016 | 0.5974 ± 0.0048 | 0.502 ± 0.016 | 0.513 ± 0.014 | 0.568 ± 0.011
MVVILLVHWEYV | 0.262 ± 0.017 | 0.15 ± 0.011 | 0.222 ± 0.032 | 0.172 ± 0.035 | 0.321 ± 0.017 | 0.17 ± 0.0031 | 0.171 ± 0.025 | 0.2768 ± 0.0012
FFSRIIAILVLM | 0.23 ± 0.031 | 0.37 ± 0.071 | 0.453 ± 0.014 | 0.337 ± 0.024 | 0.515 ± 0.016 | 0.135 ± 0.011 | 0.144 ± 0.0086 | 0.192 ± 0.035
IIIGTLLYVNVR | 0.29 ± 0.022 | 0.279 ± 0.0059 | 0.323 ± 0.033 | 0.243 ± 0.03 | 0.403 ± 0.012 | 0.188 ± 0.018 | 0.215 ± 0.029 | 0.39 ± 0.041
GFLAVTVACVWR | 0.255 ± 0.048 | 0.0513 ± 0.0097 | 0.136 ± 0.0021 | 0.154 ± 0.018 | 0.258 ± 0.013 | 0.13 ± 0.014 | 0.145 ± 0.037 | 0.213 ± 0.026
VCCYILFFLFPV | 0.418 ± 0.011 | 0.401 ± 0.0048 | 0.522 ± 0.008 | 0.349 ± 0.025 | 0.568 ± 0.024 | 0.322 ± 0.0058 | 0.337 ± 0.026 | 0.506 ± 0.018
SFIFFVSCFFIF | 0.3325 ± 0.0024 | 0.274 ± 0.043 | 0.378 ± 0.011 | 0.294 ± 0.029 | 0.451 ± 0.024 | 0.263 ± 0.0092 | 0.266 ± 0.017 | 0.416 ± 0.016
RGAVLLPSLWVV | 0.483 ± 0.061 | 0.659 ± 0.025 | 0.7044 ± 0.0028 | 0.577 ± 0.027 | 0.7355 ± 0.0068 | 0.356 ± 0.033 | 0.381 ± 0.022 | 0.551 ± 0.0061
DLQTVGLTRFIV | 0.236 ± 0.071 | 0.62 ± 0.031 | 0.7362 ± 0.0061 | 0.621 ± 0.022 | 0.714 ± 0.011 | 0.149 ± 0.015 | 0.193 ± 0.0044 | 0.353 ± 0.031
VLLCGCVWLWWG | 0.4494 ± 0.0012 | 0.437 ± 0.034 | 0.507 ± 0.006 | 0.371 ± 0.038 | 0.5248 ± 0.004 | 0.349 ± 0.013 | 0.364 ± 0.014 | 0.5013 ± 0.0039
PPSPAPLPDSLP | 0.7006 ± 0.0066 | 0.662 ± 0.036 | 0.6995 ± 0.0011 | 0.684 ± 0.038 | 0.715 ± 0.017 | 0.693 ± 0.015 | 0.691 ± 0.021 | 0.696 ± 0.0075
VVRAVLCVCASV | 0.45987 ± 0.00039 | 0.4577 ± 0.0025 | 0.489 ± 0.0069 | 0.409 ± 0.028 | 0.518 ± 0.0019 | 0.387 ± 0.012 | 0.413 ± 0.021 | 0.489 ± 0.018
PTLPASLHSIYP | 0.768 ± 0.024 | 0.654 ± 0.03 | 0.72 ± 0.031 | 0.684 ± 0.028 | 0.698 ± 0.021 | 0.687 ± 0.03 | 0.6731 ± 0.0056 | 0.6917 ± 0.0027
LLMWVLFDCHYS | 0.396 ± 0.012 | 0.39 ± 0.017 | 0.542 ± 0.034 | 0.318 ± 0.035 | 0.552 ± 0.011 | 0.306 ± 0.01 | 0.322 ± 0.023 | 0.535 ± 0.013
GWSRRFFCLFIV | 0.137 ± 0.002 | 0.203 ± 0.052 | 0.303 ± 0.0019 | 0.345 ± 0.041 | 0.4984 ± 0.0011 | 0.0815 ± 0.015 | 0.0745 ± 0.024 | 0.0793 ± 0.006
WDEVVAIVVCPV | 0.39 ± 0.023 | 0.436 ± 0.016 | 0.421 ± 0.0076 | 0.293 ± 0.036 | 0.493 ± 0.012 | 0.242 ± 0.0082 | 0.3 ± 0.016 | 0.457 ± 0.015
FILFSEMFASSV | 0.26 ± 0.0085 | 0.132 ± 0.021 | 0.175 ± 0.0083 | 0.265 ± 0.026 | 0.149 ± 0.02 | 0.28 ± 0.015 | 0.255 ± 0.028 | 0.137 ± 0.021

Sequence | protein stability index (Saccharomyces cerevisiae [1]) | protein stability index (Saccharomyces cerevisiae [2]; [3]) | protein stability index (Saccharomyces cerevisiae [2]; [4]) | protein stability index (Saccharomyces cerevisiae [2]; [5]) | protein stability index (Saccharomyces cerevisiae [2]; [6]) | protein stability index (Saccharomyces cerevisiae [2]; [7]) | protein stability index (Saccharomyces cerevisiae [2]; [8]) | protein stability index (Saccharomyces cerevisiae [2]; [9])
VSLLSLGYVFVY | 0.307 ± 0.019 | 0.286 ± 0.05 | 0.27 ± 0.03 | 0.212 ± 0.038 | 0.3467 ± 0.00073 | 0.184 ± 0.0098 | 0.216 ± 0.033 | 0.319 ± 0.0037
NVWCWGASCFFC | 0.447 ± 0.023 | 0.709 ± 0.048 | 0.797 ± 0.01 | 0.684 ± 0.0069 | 0.773 ± 0.0087 | 0.3367 ± 0.0033 | 0.36 ± 0.021 | 0.561 ± 0.025
YVCLVWHRNFFS | 0.259 ± 0.0039 | 0.617 ± 0.014 | 0.704 ± 0.019 | 0.605 ± 0.011 | 0.73 ± 0.048 | 0.14 ± 0.0063 | 0.155 ± 0.025 | 0.228 ± 0.076
DLIGSVRRLFCV | 0.27 ± 0.042 | 0.651 ± 0.042 | 0.725 ± 0.013 | 0.621 ± 0.014 | 0.728 ± 0.017 | 0.18 ± 0.0082 | 0.214 ± 0.0082 | 0.303 ± 0.0047
LGSYVWVFVYFW | 0.187 ± 0.051 | 0.159 ± 0.022 | 0.258 ± 0.0054 | 0.155 ± 0.039 | 0.323 ± 0.01 | 0.148 ± 0.0054 | 0.151 ± 0.028 | 0.267 ± 0.025
LCIFFWFSSFFL | 0.493 ± 0.015 | 0.471 ± 0.028 | 0.561 ± 0.018 | 0.4 ± 0.021 | 0.5337 ± 0.0052 | 0.401 ± 0.0067 | 0.389 ± 0.019 | 0.505 ± 0.012
ASWRYMFPVTLG | 0.367 ± 0.032 | 0.576 ± 0.031 | 0.574 ± 0.045 | 0.555 ± 0.039 | 0.685 ± 0.031 | 0.383 ± 0.021 | 0.306 ± 0.039 | 0.4618 ± 0.0041
PLPSFLYFILLR | 0.44 ± 0.079 | 0.22 ± 0.062 | 0.196 ± 0.024 | 0.333 ± 0.03 | 0.396 ± 0.024 | 0.524 ± 0.035 | 0.357 ± 0.012 | 0.359 ± 0.044
VLRCIWLCFLSV | 0.465 ± 0.043 | 0.487 ± 0.025 | 0.5129 ± 0.0034 | 0.439 ± 0.034 | 0.607 ± 0.032 | 0.448 ± 0.039 | 0.4 ± 0.013 | 0.561 ± 0.036
GGGWGVFVVLWW | 0.318 ± 0.028 | 0.193 ± 0.012 | 0.325 ± 0.0065 | 0.216 ± 0.034 | 0.4026 ± 0.0031 | 0.194 ± 0.0027 | 0.213 ± 0.031 | 0.355 ± 0.038
FSSFLGFIRFFV | 0.426 ± 0.052 | 0.661 ± 0.088 | 0.751 ± 0.0091 | 0.655 ± 0.022 | 0.751 ± 0.016 | 0.286 ± 0.018 | 0.315 ± 0.022 | 0.59 ± 0.04
DFFTSFSLFFFL | 0.0727 ± 0.039 | 0.674 ± 0.028 | 0.7814 ± 0.0048 | 0.635 ± 0.036 | 0.736 ± 0.008 | 0.638 ± 0.051 | 0.636 ± 0.018 | 0.701 ± 0.008
PLPCFVLRLPVF | 0.402 ± 0.02 | 0.39 ± 0.037 | 0.429 ± 0.033 | 0.298 ± 0.031 | 0.465 ± 0.0064 | 0.267 ± 0.011 | 0.304 ± 0.024 | 0.4379 ± 0.0024
CFFGFRAGLFLG | 0.214 ± 0.016 | 0.507 ± 0.0082 | 0.7205 ± 0.0047 | 0.593 ± 0.018 | 0.754 ± 0.052 | 0.176 ± 0.002 | 0.155 ± 0.0076 | 0.247 ± 0.072
LLSFYFVLAYMV | 0.28 ± 0.056 | 0.357 ± 0.034 | 0.393 ± 0.026 | 0.32 ± 0.035 | 0.4765 ± 0.00078 | 0.197 ± 0.024 | 0.179 ± 0.02 | 0.3 ± 0.0065
LFFFLFSLLIFF | 0.301 ± 0.036 | 0.248 ± 0.019 | 0.25 ± 0.0039 | 0.349 ± 0.044 | 0.362 ± 0.0094 | 0.377 ± 0.014 | 0.259 ± 0.047 | 0.352 ± 0.011
GLGLIRTSRLLC | 0.278 ± 0.037 | 0.609 ± 0.008 | 0.695 ± 0.026 | 0.627 ± 0.02 | 0.718 ± 0.0034 | 0.148 ± 0.027 | 0.186 ± 0.029 | 0.296 ± 0.027
IGSFFLFFLLIF | 0.384 ± 0.02 | 0.281 ± 0.025 | 0.291 ± 0.029 | 0.3 ± 0.025 | 0.383 ± 0.0054 | 0.354 ± 0.027 | 0.245 ± 0.045 | 0.3726 ± 0.0017
RVGSSLIVVYCV | 0.337 ± 0.022 | 0.452 ± 0.024 | 0.461 ± 0.017 | 0.264 ± 0.034 | 0.502 ± 0.0096 | 0.207 ± 0.0045 | 0.238 ± 0.023 | 0.427 ± 0.018

Source: the supplement of paper PMC10724198
